Positions count from the first letter of the chain named.
Key:
[1] = target: T1, Rv0792c R49A R49A (Mycobacterium tuberculosis) (UniProt O86331); test: ALISA
T1 sequence: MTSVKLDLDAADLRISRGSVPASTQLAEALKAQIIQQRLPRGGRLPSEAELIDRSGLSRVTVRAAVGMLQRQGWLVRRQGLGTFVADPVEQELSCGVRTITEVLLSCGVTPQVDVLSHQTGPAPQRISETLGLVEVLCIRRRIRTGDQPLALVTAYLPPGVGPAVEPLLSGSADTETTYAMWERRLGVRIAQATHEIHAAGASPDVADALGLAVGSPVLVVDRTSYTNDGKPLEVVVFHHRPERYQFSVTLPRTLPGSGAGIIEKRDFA

[2] = target: T2, Rv0792c G80D G80D (Mycobacterium tuberculosis) (UniProt O86331); test: ALISA
T2 sequence: T1 sequence with A49R, G80D

## TCTAGTCATTCGTCATAATCCCATCTGTTTCTTCCTCCTTCCGT [Rv0792c_2 aptamer (printed Rv0729c_2)]
[1]
  Kd: 74 nM
[2]
  Kd: 120 nM

From doi:10.1101/2021.09.17.460839
